The record followed here is PMC7812869.

“And” between values parts separate entries of the source, which are not always exact repeats. Identical values can stand only once.

The assay addresses 80S-like ribosomes (yeast | yeast (endogenous in the yeast strain)) (UniProt Q07381). Briefly: co-sedimentation.
Chain of UniProt Q07381 (Q07381 whole entry, looked up): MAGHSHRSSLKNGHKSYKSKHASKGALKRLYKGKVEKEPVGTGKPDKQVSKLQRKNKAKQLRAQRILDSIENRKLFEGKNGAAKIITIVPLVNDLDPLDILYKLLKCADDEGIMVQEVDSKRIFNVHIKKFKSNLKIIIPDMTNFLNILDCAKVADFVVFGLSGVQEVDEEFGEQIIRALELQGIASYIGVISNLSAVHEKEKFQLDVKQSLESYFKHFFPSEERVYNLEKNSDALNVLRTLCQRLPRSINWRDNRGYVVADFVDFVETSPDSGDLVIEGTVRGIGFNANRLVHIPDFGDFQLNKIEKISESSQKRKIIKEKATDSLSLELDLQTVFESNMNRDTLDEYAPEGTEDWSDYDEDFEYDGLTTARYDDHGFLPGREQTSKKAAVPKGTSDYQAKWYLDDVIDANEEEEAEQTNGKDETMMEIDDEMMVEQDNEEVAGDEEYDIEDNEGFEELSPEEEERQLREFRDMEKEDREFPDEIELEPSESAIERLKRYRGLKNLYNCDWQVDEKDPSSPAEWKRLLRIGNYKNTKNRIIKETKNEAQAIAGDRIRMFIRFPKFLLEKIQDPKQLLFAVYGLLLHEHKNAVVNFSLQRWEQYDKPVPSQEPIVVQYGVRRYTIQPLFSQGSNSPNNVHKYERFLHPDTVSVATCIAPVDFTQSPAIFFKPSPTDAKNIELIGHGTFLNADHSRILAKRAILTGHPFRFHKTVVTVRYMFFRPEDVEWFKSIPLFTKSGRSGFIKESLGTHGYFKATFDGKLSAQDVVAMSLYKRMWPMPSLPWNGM

For the substance “Fap7+SUMO-Rps14 complex (from UniProt Q12055 1-197)”, the fold change of bound Fap7 against Fap7 alone is 2 fold and 3 fold.
